{"source": "the nanobody polyreactivity screen of Harvey et al. (2022)", "data": [{"experiment": "yeast display, Sf9 membrane polyspecificity reagent, FACS + sequencing; frameworks hold sequencing errors", "summary_of_the_method": "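Galactose induction of a Saccharomyces cerevisiae BJ5465 synthetic nanobody display library ran 36–48 hours. The cells were then stained for 1 hour at 4 °C with 10% biotinylated, detergent-solubilized Sf9 membrane reagent, pulled down on streptavidin microbeads and FACS-sorted into low and high (top ~1%) gates on expression and reagent-binding fluorescence. Labels for polyreactivity follow the gate of origin.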", "values": [{"sequence": "KVQIVESGGGLVQAGRSLRLSCAASGLTFFGNAMGWYRQAPGKERDLVATISSCGGTSYADSVKGRFTISRDNAKNTVYLQMNSLKPEDTEVYYCAADIVEEFDYWGLGTQVTVSS", "polyreactivity (PSR sort gate)": "low polyreactivity"}, {"sequence": "KVQLVESGAGFVQAGGSLRLSCAASGFIFPVYTMGWYRQAPGKERELVAAITQIGGSTHYADSVKGRFTISRDNAKNTVYLQMNSLKPEYTAVYYCNAVPHPYDWGQGTQVTLSS", "polyreactivity (PSR sort gate)": "low polyreactivity"}, {"sequence": "KVQLVESGAGLVQAGGSLRLSCAASGSTFAQYAMGWYRQAPGKERELVAAISRGGGSTYYADSVKGRFTISRDTAKNTVYLQMHSLKPEDTAVYYCAADPRYRVTLGFDYWGQGTQVTVSS", "polyreactivity (PSR sort gate)": "high polyreactivity"}, {"sequence": "KVQLVESGAGLVQAGGSLRLSCAAYGSIFVGYHMGWYRQAPGKERELVAGITGAGSTNYADSVKGRFTISRENAKNTVYLQMNSLKPEDTAVYYCAADYDTPQGTKYYYWGQGTKVTVSS", "polyreactivity (PSR sort gate)": "low polyreactivity"}, {"sequence": "KVQLVESGAGLVQAGGSLRLTCAASGFTFAYYAMGWYRPAPGKERELVAAISWSGGITYYADSVKGRFTISRDNAKNTVYLQMNSLKPEDTAVDYCAAETFRGSYYDEDYDYWGQGTQVTVSS", "polyreactivity (PSR sort gate)": "low polyreactivity"}, {"sequence": "KVQLVESGGGLFQAGGSLSLSCAATGSSYGGYVMGWYRQAPGKERELVASISGNGASTTYADSVKGRFTISRDNAKNTVYLQMNSLKQEDTAVYYCNARDWYIVWYEYWGQGTQVTVSS", "polyreactivity (PSR sort gate)": "low polyreactivity"}, {"sequence": "KVQLVESGGGLVHAGGILRLISAASGSIFTYYYMGWYRQAPGKERELVAAISWNGGTTYYADSVKGRFTISRDNAKNTVYLQMNSLKPEDTAVYYCNKDGSYRYDYWGQGTQVTVSS", "polyreactivity (PSR sort gate)": "low polyreactivity"}, {"sequence": "KVQLVESGGGLVQAGGSLRISCAASGITFVRNAMGWYRQAPGKERELVAAISSGGSTYYADSVKGSFTISRDNAKITVYLLMYSLKPEDNAVYFCAVLSSWRFSGYDYWGQGTQVNVSS", "polyreactivity (PSR sort gate)": "low polyreactivity"}, {"sequence": "KVQLVESGGGLVQAGGSLRLSCAASGFIFGAYAMGWYRQAPGKERELVPSITWRGGSTYYADSVKGRFTISRDNAKNTVYLQMNSLKPEDTAVYYCAARVYLYNWQYFAYRAVDYWGQGTQVTVSS", "polyreactivity (PSR sort gate)": "high polyreactivity"}, {"sequence": "KVQLVESGGGLVQAGGSLRLSCAASGFIFLGYAMGWYRQAPGKEREFVAVISRSGVRTYYADSVKGRFTISRDNAKNTVYLQMNSLKPEDTAVYYCAARYYSTDLEYWGQGTQVTVSS", "polyreactivity (PSR sort gate)": "high polyreactivity"}, {"sequence": "KVQLVESGGGLVQAGGSLRLSCAASGFTFLRYGMGGYRQAPGKERELVASITSGGGTNYADSVKGRFTISRDNAKNTVYLQLNSLKPEDSAVYYCNAVFFYHGTKPAFISHDYWGQGTQVTVSS", "polyreactivity (PSR sort gate)": "low polyreactivity"}, {"sequence": "KVQLVESGGGLVQAGGSLRLSCAASGFTFYWYDMGWYRQAPGKERELVATISTGGGTNYADSVKGRFTISRDNAKNTVYLQMKSLKPEDTAVYYCAADGSAGYQWGYDFEGDYWGQGTQVTVSS", "polyreactivity (PSR sort gate)": "high polyreactivity"}, {"sequence": "KVQLVESGGGLVQAGGSLRLSCAASGIIFGRYAMGWYRQAPGKERELVATISRSGGTTYYADSVKGRFTISRDNAKNTVYLQMNSLKPEDTAVYYCAARWTSRYDYWGQGTQVTVSS", "polyreactivity (PSR sort gate)": "high polyreactivity"}, {"sequence": "KVQLVESGGGLVQAGGSLRLSCAASGRIFYVNTMGWYRQAPGKERELVATITWGGDSTYYADSVKGRFTISRDNAKNTVYLQMNSLKPEDTAVYYCAADHHDIRLNTRRYDYWGQGTQVTVSS", "polyreactivity (PSR sort gate)": "low polyreactivity"}, {"sequence": "KVQLVESGGGLVQAGGSLRLSCAASGRTFGDYAMGWSRQAPGKEREWVARISWDGGSTYYADSVKGRFTISRDNAKNTVYLQMNSLKPEDTAGYYCYSKSDYWGQGTQVTVSS", "polyreactivity (PSR sort gate)": "low polyreactivity"}, {"sequence": "KVQLVESGGGLVQAGGSLRLSCAASGSIFGRYAMGWYIQAPGKERELVAGISSSGGRTYYADSVKGRFTISRDNAKNTVYLQMNSLKPEDTAVYYCAAVRSSWSYYYWGQGTQVTVSS", "polyreactivity (PSR sort gate)": "high polyreactivity"}, {"sequence": "KVQLVESGGGLVQAGGSLRLSCAASGSTFFDNAKGWYRQAPGKERELVDAISWSGGSTYYADSVKGRFTISRDNAKNTVYFQMNSLKPEDTAVYYCAADWGHGTQVTVSS", "polyreactivity (PSR sort gate)": "low polyreactivity"}, {"sequence": "KVQLVESGGGLVQAGGSLRLSCASSGSIFSGYAMGWYRQAPGKERELVAAISRGGSTNYADSVKGRFTISRDNAKNTVYLQMNSLKPEDTAVYYCARDTEGKYVGYGRFGYWGQGTQVTVSS", "polyreactivity (PSR sort gate)": "low polyreactivity"}, {"sequence": "KVQLVESGGGLVQAGGSLRLTCAASGRIFPYYAMGWYRQAPGKERELVASIRYSAGNTYYADSVKGRFTISRDNAKNTVYLQMNSLKPEDTAVYYCWYTQNTLGNYWGQGTQVTVSS", "polyreactivity (PSR sort gate)": "low polyreactivity"}, {"sequence": "KVQLVESGGGLVQSGGRLRLSCAASGSTFQIYTMGWYRQAPGKERELVAAITNGGGSTYYADSVKGRFTISRDNAKNTVYFQMISLKPEDTAVYYCAAEQSYPLIILYDYWGQGTQVTVSS", "polyreactivity (PSR sort gate)": "low polyreactivity"}, {"sequence": "KVQLVETGRGLVQAGGSLRISCAASGSTFGANAMVWYIQAPGKERELVAAITVRGGSTYYADSVKCRFTISRDNAKNNVYLQMISLKPEETAVYYCAARWACSTNSYYYWGQGTQVTVSS", "polyreactivity (PSR sort gate)": "high polyreactivity"}, {"sequence": "LGQLVESGGGLVQAGGSLRLSCAASGFIFYYYDMGLYRQAPGKESELVATISRGGSRYYADSVKGRFTISRDNAKNTVYLQMNSLKPEDTAVYYCAAYRSFGYRNWNRFDYWGQGTQVTVSS", "polyreactivity (PSR sort gate)": "high polyreactivity"}, {"sequence": "LVHLQESGGGLVHAGGGLRLSCAASGNIFTYVIMGWYRQPPVKERELVAAITYGTITNYADSVKGPFTISRDNAKITVDLQMKCLKPEDSAEYHCAVQSPRIEPRLYYWGQGTEVTVSS", "polyreactivity (PSR sort gate)": "high polyreactivity"}, {"sequence": "LVKLQESGGGLVQAGGSLRLSCAASGTISPGGYMGRYRQAPGKEGELVASINVGGSTNYADSVKGRFTISRDNAKNTVYLQMNSLIPEDNAVYYCAVWGRNRLQLSYWGQGTQVTVSS", "polyreactivity (PSR sort gate)": "low polyreactivity"}, {"sequence": "LVQLQESGGGLVQAGGSLRLSCAASGTISPGGYMGWYRQAPGKERELVASINVGGSTNYADSVKGRFTISRDNAKNTVYLQMNSLKPEDTAVYYCAVWGRNRLQLSYWGQGTQVTVSS", "polyreactivity (PSR sort gate)": "low polyreactivity"}, {"sequence": "LVQLQESGGGLVQAGGSLRLSCAASGTISPGGYMGWYRQAPGKERELVASINVGGSTNYADSVKGRFTISRDNAKNTVYLQRNSLKPEDNAVYYCAVWGRNRLQLSYWGQGTQVTVSS", "polyreactivity (PSR sort gate)": "low polyreactivity"}, {"sequence": "LVQLVESGGGLVQAGGSLRLSCAASGRIFPYYMGSYRQAPGKERELVAVKSSGDGTYYADSVKGRFTISRDNAKNTVYFQMNRLKPEDTAVYYCAADAPREYVDHYKYDDDYWGQGTQVTVSS", "polyreactivity (PSR sort gate)": "low polyreactivity"}, {"sequence": "LVQLVESGGGLVQAGGSLRLSCAASGRTFDTYVMGWYSQAPGKERELVAAITTSGTSTYADSVKGRFTISRDNAKNTVYLQMNSLKPEDTAVYYCAADGPVYYSYVDWISFNEEYWGQGTQVTVSS", "polyreactivity (PSR sort gate)": "low polyreactivity"}, {"sequence": "LVQLVESGGGVVQAGGSLRLSSAASGSIFRNNTMGWYRQAPGKERELVAAISGRGTRTSYADSVKGRFTISRDNAKNTVYLQMNSLKPEDTAVYYCAARSWYLYYWGQGTQVTVSS", "polyreactivity (PSR sort gate)": "low polyreactivity"}, {"sequence": "PVLLVECGGALVQAGGSLRLTSAASGRIIKLYAMGWYRQAPGKVREFVAALTRSGARTYYADSVKGRFTISRDNAKNTVYFQMYSMKPEDSAVYSCAAYDTYDWYDYWGQGTQVTVSS", "polyreactivity (PSR sort gate)": "high polyreactivity"}, {"sequence": "PVQHVESGGGLVQAGGSLRLSCAASGSIFVWYAMGWYRQAPGKERELVAAITINCGSTYYADSVKGRFTISRDTAKNIVYLQMNSLKPEAKAVYYCAADYYTRDRYEFDSWGQGTQVTVSS", "polyreactivity (PSR sort gate)": "low polyreactivity"}, {"sequence": "PVQLQESGGGLVQAGGSLRLSCAARGSIFKVVDMGLYRQAPAKEREFVATIGEGGNTYYADSVKGRFTISRDNAKNTVYLQMNSLKPEDTAVYFSAVVLGTSYRYTYWGQGTQVTVSS", "polyreactivity (PSR sort gate)": "low polyreactivity"}, {"sequence": "PVQLQESGGGLVQAGGSLRLSCAASGNIFDADIMGWNRQAPGKESDLVACIADGGSTNYADSVKGRFTISRDNAKNTVYLQMNSLKPEDTAVHYCAAIAYPDIPTCFDYDSDYFFRGQGTQVTVSS", "polyreactivity (PSR sort gate)": "low polyreactivity"}, {"sequence": "PVQLVESGGGIVQAGGSLRLSCAASGRTFRYNPMGWSRQAPGKERELVAAITYSGGSTYYADSVKGRFTISRDNEKNTVYLQMNSMKPEETAVYYCAAGWRRFDYWGQGTQVTVSS", "polyreactivity (PSR sort gate)": "high polyreactivity"}, {"sequence": "PVQLVESGGGLVQAGGSLRLSCAACGRIFRYYAMGWYRQAPGKERELVAAISRSGGRTYYADSVKGRFTISRDNAKNTVYLEMNSLKPEDTAVYYCNALYYKYYPSRYDYWGLGTQVTVSS", "polyreactivity (PSR sort gate)": "high polyreactivity"}, {"sequence": "PVQLVESGGGLVQAGGSLRLSCAASGFIFDSYPMGWYRQAPGKERELVAAISYSAGSTSYADSVKGRFTISRDNAKNTVYLQMKSLKPEDTAVYYCNARYYPLYSNSYDSWGQGTQVTVSS", "polyreactivity (PSR sort gate)": "low polyreactivity"}, {"sequence": "PVQLVESGGGLVQAGGSLRLSCAASGFIFYLYAMGWYRQAPGKERELVASINVSGASTRYADSVKGRFTISRDNSKNTVYLQMKSLKPEDTAVYYCAAAITELYFEAYYYWGQGTQVTVSS", "polyreactivity (PSR sort gate)": "low polyreactivity"}, {"sequence": "PVQLVESGGGLVQAGGSLRLSCAASGFIFYYNTMGSYRQAPGKERELVAAINSGGSTYYADSVKGRFTISRDNAKNTVYLQMNSLKPEDTAVYYCAKRYAVSSGYYYWGQGTQVTVSS", "polyreactivity (PSR sort gate)": "high polyreactivity"}, {"sequence": "PVQLVESGGGLVQAGGSLRLSCAASGFIYPRYAMGWYRQAPGKEREVVAAISYSGGSTYYADSVKGRFTISRDNAKNTVYLQMNSLKPEDTAVYYCAARLFKDSWMDYWGQGTQVTVSS", "polyreactivity (PSR sort gate)": "high polyreactivity"}, {"sequence": "PVQLVESGGGLVQAGGSLRLSCAASGFTFDRYAMGWYRQAPGKERELVAAISRSGATTYYADSVKGRFTISRDNAKNTVYLQMNSLKPEDTAVYYCNADDVWYEYDYWGQGTQVTVSS", "polyreactivity (PSR sort gate)": "high polyreactivity"}, {"sequence": "PVQLVESGGGLVQAGGSLRLSCAASGFTFYSYAMGWYRQAPGKEREFVAAGSTYYADSVKGRFTISRDNAKNTVYLQMNSLKPEDTAVYYCAADPWIYVQSYGFWGQGTQVTVSS", "polyreactivity (PSR sort gate)": "low polyreactivity"}, {"sequence": "PVQLVESGGGLVQAGGSLRLSCAASGIIFSDYAMGWYRQGPGKERELVAAITGGVSKYYADSVKGRFTISRDNAKNTVYLQMNSLKPEDTAVYYCNTDAWLETPVSGYSWGQGTQVTVSS", "polyreactivity (PSR sort gate)": "low polyreactivity"}, {"sequence": "PVQLVESGGGLVQAGGSLRLSCAASGRIFVYNVMGWSRQATGKERELVAASRWSGGSTYADSVNGRYTISRDQAKNPVYLQIHSLKPEDTADYYCAARHYRRGDSWAQGTQVTVSS", "polyreactivity (PSR sort gate)": "high polyreactivity"}]}]}
